Results as given in patent publication EP4725970A1.
pKd: −log10 of the molar value.

Biological target: human BCMA-His (human) (UniProt Q02223)
Experiment: BLI (Octet), 1:1 fit

Chain of human BCMA-His (human) (Q02223 1-54): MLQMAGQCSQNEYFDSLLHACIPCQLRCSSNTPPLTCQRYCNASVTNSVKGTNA
Chain of JNJ-BCMA/CD3 (Teclistamab) (bispecific antibody) (heavy): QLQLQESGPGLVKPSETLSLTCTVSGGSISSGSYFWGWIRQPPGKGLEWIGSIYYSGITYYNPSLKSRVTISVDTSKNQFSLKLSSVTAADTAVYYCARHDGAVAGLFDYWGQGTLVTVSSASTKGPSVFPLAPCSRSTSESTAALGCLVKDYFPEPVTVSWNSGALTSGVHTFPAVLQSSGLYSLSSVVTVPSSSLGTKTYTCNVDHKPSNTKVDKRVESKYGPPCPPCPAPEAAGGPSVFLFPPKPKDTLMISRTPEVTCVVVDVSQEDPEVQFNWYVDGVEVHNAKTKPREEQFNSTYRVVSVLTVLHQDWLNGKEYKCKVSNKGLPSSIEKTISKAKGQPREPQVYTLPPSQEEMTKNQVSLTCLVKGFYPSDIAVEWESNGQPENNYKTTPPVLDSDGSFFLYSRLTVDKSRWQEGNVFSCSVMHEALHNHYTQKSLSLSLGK
Chain of JNJ-BCMA/CD3 (Teclistamab) (bispecific antibody) (light): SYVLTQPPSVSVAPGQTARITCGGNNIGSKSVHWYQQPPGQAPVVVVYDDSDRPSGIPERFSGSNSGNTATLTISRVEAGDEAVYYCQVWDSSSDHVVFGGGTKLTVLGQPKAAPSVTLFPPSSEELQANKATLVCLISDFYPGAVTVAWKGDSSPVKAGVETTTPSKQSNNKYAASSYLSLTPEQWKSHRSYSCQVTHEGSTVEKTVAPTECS
Chain of JNJ-BCMA/CD3 (Teclistamab) (bispecific antibody) (heavy): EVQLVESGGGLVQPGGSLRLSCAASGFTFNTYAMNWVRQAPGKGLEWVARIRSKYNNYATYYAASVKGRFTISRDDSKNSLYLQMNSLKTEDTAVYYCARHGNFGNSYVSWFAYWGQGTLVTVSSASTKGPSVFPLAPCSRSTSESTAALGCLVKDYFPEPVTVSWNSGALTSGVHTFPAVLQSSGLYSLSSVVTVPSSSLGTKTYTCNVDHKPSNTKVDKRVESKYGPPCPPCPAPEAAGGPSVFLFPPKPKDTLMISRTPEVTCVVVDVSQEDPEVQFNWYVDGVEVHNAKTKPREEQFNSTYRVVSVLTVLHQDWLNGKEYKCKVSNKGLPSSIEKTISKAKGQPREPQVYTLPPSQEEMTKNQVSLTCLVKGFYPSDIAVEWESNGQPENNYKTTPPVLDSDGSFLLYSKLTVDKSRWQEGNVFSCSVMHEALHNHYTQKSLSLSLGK
Chain of JNJ-BCMA/CD3 (Teclistamab) (bispecific antibody) (light): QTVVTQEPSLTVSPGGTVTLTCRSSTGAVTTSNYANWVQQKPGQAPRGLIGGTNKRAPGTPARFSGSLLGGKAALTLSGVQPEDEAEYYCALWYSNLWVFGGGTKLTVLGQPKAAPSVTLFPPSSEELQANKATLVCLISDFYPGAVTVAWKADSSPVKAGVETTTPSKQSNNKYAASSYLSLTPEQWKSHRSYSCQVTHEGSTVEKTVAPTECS
Chain of REGN-BCMA/CD3 (REGN5458) (bispecific antibody) (VH): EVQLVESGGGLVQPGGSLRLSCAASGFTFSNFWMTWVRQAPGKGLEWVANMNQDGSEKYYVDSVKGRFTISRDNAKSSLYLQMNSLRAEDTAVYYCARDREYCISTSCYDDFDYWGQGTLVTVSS
Chain of REGN-BCMA/CD3 (REGN5458) (bispecific antibody) (VL): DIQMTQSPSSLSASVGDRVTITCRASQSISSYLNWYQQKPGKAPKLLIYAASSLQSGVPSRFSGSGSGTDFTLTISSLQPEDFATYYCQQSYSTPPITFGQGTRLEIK
Chain of REGN-BCMA/CD3 (REGN5458) (bispecific antibody) (chain): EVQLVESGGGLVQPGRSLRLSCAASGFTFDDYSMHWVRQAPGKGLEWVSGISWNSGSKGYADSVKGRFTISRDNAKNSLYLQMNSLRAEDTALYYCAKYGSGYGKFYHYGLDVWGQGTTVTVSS

pKd	koff	kon	Substance
9.69	0.000262 s⁻¹	1.28e+06 M⁻¹ s⁻¹	Roche-BCMA/CD3 (Alnuctamab) (bispecific antibody)
9.36	0.000722 s⁻¹	1.66e+06 M⁻¹ s⁻¹	JNJ-BCMA/CD3 (Teclistamab) (bispecific antibody)
8.95	0.000792 s⁻¹	701000 M⁻¹ s⁻¹	REGN-BCMA/CD3 (REGN5458) (bispecific antibody)
